{"source": "paper PMC6082575", "key": {"[1]": {"molecular_target": "C-X-C chemokine receptor type 4 (mouse, on cultured hippocampal neurons) (mouse (endogenous in cultured hippocampal neurons)) (UniProt P70658)", "sequence (P70658 whole entry)": "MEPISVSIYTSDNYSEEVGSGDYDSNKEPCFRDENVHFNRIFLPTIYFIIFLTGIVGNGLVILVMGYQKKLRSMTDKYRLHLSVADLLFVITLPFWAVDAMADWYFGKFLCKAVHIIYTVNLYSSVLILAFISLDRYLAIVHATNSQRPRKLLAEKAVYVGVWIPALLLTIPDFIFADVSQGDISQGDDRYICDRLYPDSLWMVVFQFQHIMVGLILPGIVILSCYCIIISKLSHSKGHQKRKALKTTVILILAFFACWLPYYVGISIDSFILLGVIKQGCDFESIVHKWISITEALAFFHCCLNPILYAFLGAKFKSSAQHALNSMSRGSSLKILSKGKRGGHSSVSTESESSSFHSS"}, "[2]": {"molecular_target": "C-X-C chemokine receptor type 4 (mouse, on cultured hippocampal neurons) (mouse (endogenous in cultured hippocampal neurons)) (UniProt P70658)", "remark": "listed apart in the source"}, "[3]": {"molecular_target": "C-X-C chemokine receptor type 4 (feline, on cultured hippocampal neurons) (cat (endogenous in cultured feline hippocampal neurons)) (UniProt P56498)", "sequence (P56498 whole entry)": "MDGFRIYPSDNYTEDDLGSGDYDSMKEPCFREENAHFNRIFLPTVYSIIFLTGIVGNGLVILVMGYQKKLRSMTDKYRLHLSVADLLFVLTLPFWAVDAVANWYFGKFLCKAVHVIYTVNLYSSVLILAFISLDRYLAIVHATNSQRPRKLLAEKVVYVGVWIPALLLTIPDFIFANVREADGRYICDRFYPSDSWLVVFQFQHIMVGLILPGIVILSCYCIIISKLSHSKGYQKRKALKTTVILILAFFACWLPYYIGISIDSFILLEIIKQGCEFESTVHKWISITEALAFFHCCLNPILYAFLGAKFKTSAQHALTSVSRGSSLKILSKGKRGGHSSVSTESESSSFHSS"}}}
{"substance": "HIV-1 IIIB gp120 Recombinant Protein (from UniProt P04578 33-511) (ligand)", "values": [{"measurement": "normalised total Ca2+ activity (GCaMP5 imaging) in cultured mouse hippocampal neurons treated with 1-nM gp120 (IIIB) and 200-nM AMD3100 (CXCR4 antagonist)", "setting": "[1]", "value": "0.85 ΔF/Fmin"}]}
{"substance": "FIV envelope glycoprotein gp95 (Fc fusion)", "values": [{"measurement": "normalised total Ca2+ activity (GCaMP5 imaging) in cultured mouse hippocampal neurons treated with 1-nM gp95 and 200-nM AMD3100 (CXCR4 antagonist)", "setting": "[2]", "value": "1.18 ΔF/Fmin"}, {"measurement": "normalised total Ca2+ activity (GCaMP5 imaging) in cultured feline hippocampal neurons treated with 1-nM gp95 and 200-nM AMD3100 (CXCR4 antagonist)", "setting": "[3]", "value": "0.99 ΔF/Fmin"}]}
{"substance": "stromal cell-derived factor-1 (from UniProt P48061 22-93) (ligand)", "values": [{"measurement": "normalised total Ca2+ activity (GCaMP5 imaging) in cultured mouse hippocampal neurons treated with 20-nM SDF-1 and 200-nM AMD3100 (CXCR4 antagonist)", "setting": "[1]", "value": "1.26 ΔF/Fmin"}]}
